Laboratory results: patent publication US20260258155A1 (TRIVENI BIO, published 2026)
Changes are numbered by the printed parent chain.

B1: KLK7-L4-Ab2 (antibody, V domains shown)
VH: QLQLQESGPGLVKPSETLSLTCTVSGGSISSSPYNWVWIRQPPGKGLEWIGSILHSGSTYYNPSLKSRVTISVDTSKNQFSLKLSSVTAADTAVYYCARGVPTYWGAASHYYYYMDVWGKGTTVTVSS
VL: DIQMTQSPSTLSASVGDRVTITCRASQSISSWLAWYQQKPGKAPKLLIYKASSLESGVPSRFSGSGSGTEFTLTISSLQPDDFATYYCEQYGSESPLTFGGGTKVEIK
B2: KLK7-L2-Ab2 (antibody, V domains shown)
VH: QVQLQESGPGLVKPSQTLSLTCTVSGGSISSGGYYWHWIRQHPGKGLEWIGYIYRSGYTYYNPSLKSRVTISVDTSKNQFSLKLSSVTAADTAVYYCARAKQLTTHRYFDYWGQGTLVTVSS
VL: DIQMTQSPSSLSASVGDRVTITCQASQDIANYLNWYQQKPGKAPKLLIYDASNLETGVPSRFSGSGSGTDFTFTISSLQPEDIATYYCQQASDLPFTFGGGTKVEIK
B3: KLK7-L2-Ab4 (antibody, V domains shown)
VH: B2 VH with Y35S, H37N, Y52S, Y58S, T105L, H106T
VL: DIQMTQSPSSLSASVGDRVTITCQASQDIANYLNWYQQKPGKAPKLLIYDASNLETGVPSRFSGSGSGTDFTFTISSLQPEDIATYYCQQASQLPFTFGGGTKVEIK
B4: KLK7-L2-Ab3 (antibody, V domains shown)
VH: B2 VH with Y35S, H37N, Y52S, Y58S, Q102A, F109V
VL: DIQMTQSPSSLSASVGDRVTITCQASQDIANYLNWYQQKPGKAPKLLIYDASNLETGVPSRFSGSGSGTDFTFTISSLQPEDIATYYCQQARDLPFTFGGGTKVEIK
B5: KLK7-L2-Ab1 (antibody, V domains shown)
VH: B2 VH with H37S, Y52S, R55Y, Y58S
VL: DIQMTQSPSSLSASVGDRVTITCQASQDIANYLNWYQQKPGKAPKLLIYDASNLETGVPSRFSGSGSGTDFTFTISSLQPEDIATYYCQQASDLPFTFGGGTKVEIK
B6: KLK7-L2-Ab5 (antibody, V domains shown)
VH: B2 VH with H106S
VL: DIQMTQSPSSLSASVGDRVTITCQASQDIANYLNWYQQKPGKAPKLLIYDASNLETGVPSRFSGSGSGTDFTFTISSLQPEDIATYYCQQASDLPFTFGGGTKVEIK
B7: KLK7-L1-Ab4 (antibody, V domains shown)
VH: QVQLVQSGAEVKKPGASVKVSCKASGYTFTSEGIHWVRQAPGQGLEWMGSISASSGDTNYAQKLQGRVTMTTDTSTSTAYMELRSLRSDDTAVYYCARAAGYGARHWYFDLWGQGTMVTVSS
VL: DIQMTQSPSSLSASVGDRVTITCRASQSISSYLNWYQQKPGKAPKLLIYGASSLQSGVPSRFSGSGSGTDFTLTISSLQPEDFATYYCDQFYSTPPITFGGGTKVEIK
B8: KLK7-L1-Ab5 (antibody, V domains shown)
VH: B7 VH
VL: B7 VL with F91W
B9: KLK7-L1-Ab2 (antibody, V domains shown)
VH: B7 VH with T30G, S31P, E32Y, H35S, S50W, S54Y, H106W
VL: B7 VL with Q90G, F91S
B10: KLK7-L1-Ab6 (antibody, V domains shown)
VH: B7 VH with H106S
VL: B7 VL
B11: KLK7-L1-Ab1 (antibody, V domains shown)
VH: B7 VH with A16S, Y27G, T30S, S31N, E32Y, G33A, H35S, S50W, S54Y
VL: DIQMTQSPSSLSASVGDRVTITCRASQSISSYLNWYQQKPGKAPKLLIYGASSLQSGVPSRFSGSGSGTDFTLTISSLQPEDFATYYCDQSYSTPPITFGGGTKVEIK
B12: KLK7-L1-Ab3 (antibody, V domains shown)
VH: B7 VH with K63E
VL: B7 VL
B13: KLK7-L1-Ab7 (antibody, V domains shown)
VH: B7 VH with A99G, H106D
VL: B7 VL with F91R
B14: KLK7-L5-Ab1 (antibody, V domains shown)
VH: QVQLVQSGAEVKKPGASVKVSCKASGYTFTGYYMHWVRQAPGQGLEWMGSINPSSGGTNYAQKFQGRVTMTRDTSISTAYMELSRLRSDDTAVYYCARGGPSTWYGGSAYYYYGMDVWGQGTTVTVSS
VL: EIVLTQSPGTLSLSPGERATLSCRASQSVSSDYLAWYQQKPGQAPRLLIYGASSRATGIPDRFSGSGSGTDFTLTISRLEPEDFAVYYCQQYANLWTFGGGTKVEIK
B15: KLK7-L5-Ab2 (antibody, V domains shown)
VH: QVQLVQSGAEVKKPGASVKVSCKASGYTFAGYDMHWVRQAPGQGLEWMGSINPTSGRTNYAQKFQGRVTMTRDTSISTAYMELSRLRSDDTAVYYCARGGPSTWYGGSAYTYYGADVWGQGTTVTVSS
VL: B14 VL with N94P
B16: KLK5-L2-Ab4 (antibody, V domains shown)
VH: QLQLQESGPGLVKPSETLSLTCTVSGGSIPSSSYYWSWIRQPPGKGLEWIGNIYYSGSTYYNPSLKSRVTISVDTSKNQFSLKLSSVTAADTAVYYCARGEYDRSYYYWGLDVWGQGTTVTVSS
VL: not shown
B17: KLK5-L2-Ab3 (antibody, V domains shown)
VH: B16 VH with Y108F, L111M
VL: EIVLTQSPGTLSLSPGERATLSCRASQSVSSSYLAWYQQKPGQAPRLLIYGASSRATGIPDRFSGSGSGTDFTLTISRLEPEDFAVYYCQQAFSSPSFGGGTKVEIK
B18: KLK5-L1-Ab3 (antibody, V domains shown)
VH: EVQLVESGGGLVQPGGSLRLSCAASGFTFEHYSMNWVRQAPGKGLEWVSYISSSSSYIDYADSVKGRFTISRDNAKNSLYLQMNSLRAEDTAVYYCARDLTSMQSRDYYYYGMDVWGQGTTVTVSS
VL: DIQMTQSPSSVSASVGDRVTITCRASQGISSWLAWYQQKPGKAPKLLIYAASSLQSGVPSRFSGSGSGTDFTLTISSLQPEDFATYYCQQVPIFPYTFGGGTKVEIK
B19: KLK7-L3-Ab2 (antibody, V domains shown)
VH: QVQLVQSGAEVKKPGSSVKVSCKASGGTFNNYAISWVRQAPGQGLEWMGAIIPIFGVANYAQKFQGRVTITADESTSTAYMELSSLRSEDTAVYYCARGAPNYYGAQSSRGIAFDIWGQGTMVTVSS
VL: B18 VL with Q89V, V91A, P92N, I93A, T97K
B20: KLK5-L1-Ab2 (antibody, V domains shown)
VH: B18 VH with E30G, H31S, S33A, Y57F
VL: B18 VL
B21: KLK5-L3-Ab7 (antibody, V domains shown)
VH: QVQLVQSGAEVRKPGSSVKVSCKASGGTFSNYHISWVRQAPGQGLEWMGGIFPTFGTANYAQKFQGRVTITADESTSTAYMELSSLRSEDTAVYYCARGSASGYYDRSYYYDGMDVWGQGTTVTVSS
VL: B18 VL with P92I, I93S
B22: KLK5-L1-Ab4 (antibody, V domains shown)
VH: B18 VH with E30N, H31D
VL: B18 VL
B23: KLK5-L3-Ab6 (antibody, V domains shown)
VH: B21 VH with R12K, N31G, H33V, T54I, F55S, T57Y, N59V, G99A, D112Y
VL: B18 VL with P92S, I93S, Y96Q
B24: KLK5-L1-Ab5 (antibody, V domains shown)
VH: B18 VH with S102D, M103R
VL: B18 VL
notes: also called KLK-L1-Ab5
B25: KLK7-L3-Ab3 (antibody, V domains shown)
VH: B19 VH with N30S, N31S, Y32H, S35T, A50G, V57F, A106S, Q107A
VL: B18 VL with Q89V, V91A, P92N, I93A, T97S

What was measured:
[1] = target: human KLK7 (hKLK7), active form (human, UniProt P49862 30-253); assay: cell-based or functional assay
[2] = target: T1, mouse KLK7 (mKLK7) (mouse, UniProt Q91VE3 26-249); assay: cell-based or functional assay
[3] = target: T1, mouse KLK7 (mKLK7); assay: Biacore SPR, antibody captured on Protein A chip, single-cycle kinetics, 25 C
Description: (§1) All screening assays were performed at 25 C. The running buffer used was 20 mM HEPES, 300 mM NaCl, 0.01% Tween-20, pH 7.5. Antibodies (1 ug/mL) were captured on Fc2-4 of a Series S ProteinA Sensor Chip (Cytiva) flowing at 10 ul/mL for 30 s. Kinetics measurements were made in single-cycle kinetics mode with a series of 4-5 concentrations with top concentration of 25-100 nM and serial dilution 4-fold. Contact time was typically 300 s and dissociation time ranged from 1800-3600 s. Flow rate of 30 ul/mL was typically used. The sensor chip was regenerated with 10 mM glycine, pH 1.5 with a contact time of 30 s flowing at 50 ul/mL.

[4] = target: human KLK5 (hKLK5), active form (human, UniProt Q9Y337 67-293); assay: cell-based or functional assay
[5] = target: mouse KLK5 (mKLK5) (mouse); assay: cell-based or functional assay
[6] = target: T2, mouse KLK5 (mKLK5) (mouse); assay: Biacore SPR, antibody captured on Protein A chip, single-cycle kinetics, 25 C
T2 construct: Enzymatically active in the protease assay
Description: as §1

Sequence of human KLK7 (hKLK7), active form (P49862 30-253): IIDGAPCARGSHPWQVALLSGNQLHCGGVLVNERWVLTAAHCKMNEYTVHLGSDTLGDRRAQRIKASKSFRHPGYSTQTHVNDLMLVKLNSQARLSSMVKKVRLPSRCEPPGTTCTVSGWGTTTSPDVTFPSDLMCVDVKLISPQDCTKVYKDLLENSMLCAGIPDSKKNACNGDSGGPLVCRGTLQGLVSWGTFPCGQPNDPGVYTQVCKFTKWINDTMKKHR
T1 sequence (Q91VE3 26-249 limits assumed): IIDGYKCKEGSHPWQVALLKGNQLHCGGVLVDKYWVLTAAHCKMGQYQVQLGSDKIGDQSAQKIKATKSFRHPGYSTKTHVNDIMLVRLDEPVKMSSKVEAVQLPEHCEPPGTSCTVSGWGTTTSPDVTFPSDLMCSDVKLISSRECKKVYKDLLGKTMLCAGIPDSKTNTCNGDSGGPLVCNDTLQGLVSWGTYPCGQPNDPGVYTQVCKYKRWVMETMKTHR

| Binder | hKLK7 IC50 (protease inhibition) [1] [nM] | hKLK7 IC90 (protease inhibition) [1] [nM] | mKLK7 IC50 (protease inhibition) [2] [nM] | mKLK7 IC90 (protease inhibition) [2] [nM] | Kd [3] [nM] | hKLK5 IC50 (protease inhibition) [4] [nM] | hKLK5 IC90 (protease inhibition) [4] [nM] | mKLK5 IC50 (protease inhibition) [5] [nM] | mKLK5 IC90 (protease inhibition) [5] [nM] | Kd [6] [nM] |
| --- | --- | --- | --- | --- | --- | --- | --- | --- | --- | --- |
| B1 | 1.42 | 6.34 | 2.42 | 9.04 | 0.0266 | – | – | – | – | – |
| B2 | – | – | 2.31 | 6.01 | 0.0357 | – | – | – | – | – |
| B3 | – | – | 1.63 | 6.51 | 0.0101 | – | – | – | – | – |
| B4 | 0.833 | 3.39 | 1.49 | 4.88 | – | – | – | – | – | – |
| B5 | – | – | – | 5.63 | 0.0796 | – | – | – | – | – |
| B6 | – | – | 1.91 | 6.52 | 0.018 | – | – | – | – | – |
| B7 | 0.914 | 3.67 | 1.42 | 7.12 | 0.0107 | – | – | – | – | – |
| B8 | 1.23 | 4.66 | 1.35 | 7.25 | 0.017 | – | – | – | – | – |
| B9 | 1.69 | 6.11 | 3.42 | 19.8 | 0.0354 | – | – | – | – | – |
| B10 | – | – | 1.25 | 4.58 | 0.0144 | – | – | – | – | – |
| B11 | – | – | 0.5 | 108 | 1.62 | – | – | – | – | – |
| B12 | 1.2 | 5.03 | 1.46 | 6.45 | 0.0402 | – | – | – | – | – |
| B13 | – | – | 1.06 | 5.03 | 0.0302 | – | – | – | – | – |
| B14 | – | – | 15 | 67.3 | 4.86 | – | – | – | – | – |
| B15 | – | – | 1.48 | 26.5 | 0.0253 | – | – | – | – | – |
| B16 | – | – | – | – | – | 2.04 | 9.86 | 1.68 | 15.6 | 0.47 |
| B17 | – | – | – | – | – | 2.26 | 10.2 | 1.82 | 29.5 | 0.59 |
| B18 | – | – | – | – | – | 1.71 | 15 | 4.97 | 40.1 | 0.32 |
| B19 | 0.802 | 4.43 | 2.68 | 11.5 | 0.125 | – | – | – | – | – |
| B20 | – | – | – | – | – | 2.26 | 13.3 | 4.43 | 34.6 | 0.41 |
| B21 | – | – | – | – | – | – | – | 2.17 | 10.7 | 1.4 |
| B22 | – | – | – | – | – | 2.49 | 10.6 | 9.26 | 81.2 | 0.66 |
| B23 | – | – | – | – | – | – | – | 12.7 | 80.8 | 12 |
| B24 | – | – | – | – | – | – | – | 4.1 | 25 | 0.26 |
| B25 | 1.4 | 8.25 | 3.34 | 11.4 | 0.217 | – | – | – | – | – |
